Laboratory results from patent publication US20210347865A1 (STATEN BIOTECHNOLOGY B V, published 2021).

Legend:
[1] = target: T1, native human ApoC3 (human, UniProt P02656 21-99, biotinylated in the captured-antigen assays (Tables 6 and 8); sites not stated); experiment: SPR, Table 9 ('29A6-Nhance as the captured antigen'), analyte 0.78-25 nM, pH 7.4
T1 construct: also called nhuApoC3; native huApoC3
Protocol: (§1) For the captured antigen approach, biotinylated native human ApoC3 was captured on a streptavidin coated chip (GE Healthcare #BR100032) at pH 7.4. In accordance with the methods provided by Biacore, 20 μl of 10 μg/ml biotinylated human ApoC3 was injected until the surface density reached approximately 500 RU. SPR methods and data analysis were followed as described in Example 2.1. SPR was also performed using these methods with the 29A06-Nhance antibody as the captured antigen. The 29A06-Nhance antibody comprises the heavy chain amino acid sequence set forth in SEQ ID NO: 38 and the light chain amino acid sequence set forth in SEQ ID NO: 50.
(§2) Similarly to the immobilized antigen approach, most of the clones had high affinity towards the human target and low off-rate values.

[2] = target: T2, recombinant cynomolgus ApoC3 (cynomolgus monkey, UniProt P18659 21-99, biotinylated in the captured-antigen assays (Tables 6 and 8); sites not stated); experiment: as above
T2 construct: No cleavage site is stated, so none is applied; also called rcyApoC3; bio-rcyApoC3
Protocol: as §1, §2

T1 sequence (P02656 21-99): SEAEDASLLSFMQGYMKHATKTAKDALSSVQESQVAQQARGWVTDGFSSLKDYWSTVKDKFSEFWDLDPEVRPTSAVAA
T2 sequence (P18659 21-99 limits assumed): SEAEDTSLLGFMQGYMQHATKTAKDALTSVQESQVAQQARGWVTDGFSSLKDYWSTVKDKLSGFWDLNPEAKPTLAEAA

B1: 29A06-Nhance antibody (antibody, human IgG1, kappa, V domains shown)
VH: QLQLVESGGGLVQPGGSLRLSCAASGFTFGTYSMRWVRQVPRKALEWVSSISTDGGGTAYRDSVKGRFTISRDNAKNTLYLQMNNLKPEDTAIYYCVIAGYSDWGQGTQVTVSS
VL: DVVLTQTPGSLSVVPGESASISCKASQNLVHSNGKTYLYWLLQKPGQSPQRLIYQVSNRGSEVPDRFTGSGSGTDFTLKISGVKAEDAGVYYCAQGTYWPKTFGQGTKLEIKR
notes: IgG1 heavy chain with the Nhance Fc variant, and a kappa light chain; This is probably a print error; also called mAb 29A6-Nhance; 29A6-Nhance
B1 gave a Kd [1] of 0.023 nM, a kon [1] of 770000 M⁻¹ s⁻¹ and a Kd [2] of 0.675 nM.
